Measurements reported in the supplement of paper PMC9112550, “Optimization of the antimicrobial peptide Bac7 by deep mutational scanning” (BMC Biology, 2022).

Test system: Escherichia coli TOP10
Assay: shrunken log2 fold change of peptide-encoding DNA abundance (4.5 h post-induction vs induction); higher = less antimicrobial activity (less host growth inhibition)
Settings: time post-induction: 4.5 h; library: site-saturation at positions 5, 18, 19, 20
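Also: peptides expressed intracellularly from a pBAD plasmid library in pooled LB shake-flask culture, induced with 0.3% L-arabinose, DNA abundance read by NGS, three biological replicates, DESeq2 with apeglm shrinkage.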

Row | Sequence | shrunken log2 fold change
1 | RRIRVRPPRLPRPRPRPRKIPRP | -0.0978
2 | RRIRVRPPRLPRPRPRPRLYPRP | 0.13
3 | RRIRVRPPRLPRPRPRPRMKPRP | -0.167
4 | RRIRVRPPRLPRPRPRPRMWPRP | 0.271
5 | RRIRVRPPRLPRPRPRPRNFPRP | -0.275
6 | RRIRVRPPRLPRPRPRPRNIPRP | -0.0258
7 | RRIRVRPPRLPRPRPRPRPAPRP | 0.678
8 | RRIRVRPPRLPRPRPRPRPDPRP | 0.216
9 | RRIRVRPPRLPRPRPRPRQTPRP | -0.0375
10 | RRIRVRPPRLPRPRPRPRSCPRP | 0.0646
11 | RRIRVRPPRLPRPRPRPRTKPRP | 0.0796
12 | RRIRVRPPRLPRPRPRPRTLPRP | -0.222
13 | RRIRVRPPRLPRPRPRPRVFPRP | 0.218
14 | RRIRVRPPRLPRPRPRPRYNPRP | -0.381
15 | RRIRVRPPRLPRPRPRPSASPRP | -0.2
16 | RRIRVRPPRLPRPRPRPSDDPRP | -0.417
17 | RRIRVRPPRLPRPRPRPSFMPRP | -0.384
18 | RRIRVRPPRLPRPRPRPSGLPRP | 0.0687
19 | RRIRVRPPRLPRPRPRPSGVPRP | 0.0069
20 | RRIRVRPPRLPRPRPRPSHFPRP | -0.443
21 | RRIRVRPPRLPRPRPRPSHLPRP | -0.443
22 | RRIRVRPPRLPRPRPRPSKYPRP | -0.783
23 | RRIRVRPPRLPRPRPRPSLYPRP | -0.62
24 | RRIRVRPPRLPRPRPRPSMAPRP | -0.0698
25 | RRIRVRPPRLPRPRPRPSMLPRP | -0.395

Row | Sequence | shrunken log2 fold change
26 | RRIRVRPPRLPRPRPRPSMPPRP | -0.343
27 | RRIRVRPPRLPRPRPRPSNNPRP | -0.662
28 | RRIRVRPPRLPRPRPRPSNQPRP | -0.507
29 | RRIRVRPPRLPRPRPRPSPRPRP | 0.415
30 | RRIRVRPPRLPRPRPRPSQEPRP | -0.549
31 | RRIRVRPPRLPRPRPRPSRLPRP | 0.599
32 | RRIRVRPPRLPRPRPRPSRMPRP | -0.0384
33 | RRIRVRPPRLPRPRPRPSTTPRP | -0.0817
34 | RRIRVRPPRLPRPRPRPSYEPRP | -0.298
35 | RRIRVRPPRLPRPRPRPTCCPRP | 0.095
36 | RRIRVRPPRLPRPRPRPTCYPRP | -0.118
37 | RRIRVRPPRLPRPRPRPTEIPRP | 0.221
38 | RRIRVRPPRLPRPRPRPTGAPRP | 0.47
39 | RRIRVRPPRLPRPRPRPTGIPRP | -0.115
40 | RRIRVRPPRLPRPRPRPTIIPRP | -0.479
41 | RRIRVRPPRLPRPRPRPTKQPRP | -0.0322
42 | RRIRVRPPRLPRPRPRPTLYPRP | -0.155
43 | RRIRVRPPRLPRPRPRPTNPPRP | -0.296
44 | RRIRVRPPRLPRPRPRPTNRPRP | 3.75
45 | RRIRVRPPRLPRPRPRPTQMPRP | 0.19
46 | RRIRVRPPRLPRPRPRPTQYPRP | 0.166
47 | RRIRVRPPRLPRPRPRPTRFPRP | 0.0403
48 | RRIRVRPPRLPRPRPRPTRGPRP | 0.412
49 | RRIRVRPPRLPRPRPRPTSHPRP | -0.139
50 | RRIRVRPPRLPRPRPRPTTTPRP | 0.1

Row | Sequence | shrunken log2 fold change
51 | RRIRVRPPRLPRPRPRPTVAPRP | 0.37
52 | RRIRVRPPRLPRPRPRPTWHPRP | 0.384
53 | RRIRVRPPRLPRPRPRPTWIPRP | 0.216
54 | RRIRVRPPRLPRPRPRPTWQPRP | 0.27
55 | RRIRVRPPRLPRPRPRPTWVPRP | 0.228
56 | RRIRVRPPRLPRPRPRPTYKPRP | -0.512
57 | RRIRVRPPRLPRPRPRPVADPRP | 0.181
58 | RRIRVRPPRLPRPRPRPVCDPRP | 0.0894
59 | RRIRVRPPRLPRPRPRPVCTPRP | 0.165
60 | RRIRVRPPRLPRPRPRPVDHPRP | -0.464
61 | RRIRVRPPRLPRPRPRPVDQPRP | -0.0903
62 | RRIRVRPPRLPRPRPRPVDYPRP | -0.034
63 | RRIRVRPPRLPRPRPRPVEHPRP | 0.00181
64 | RRIRVRPPRLPRPRPRPVFWPRP | 0.378
65 | RRIRVRPPRLPRPRPRPVGQPRP | 0.0877
66 | RRIRVRPPRLPRPRPRPVIDPRP | 0.0104
67 | RRIRVRPPRLPRPRPRPVLFPRP | 0.00022
68 | RRIRVRPPRLPRPRPRPVLIPRP | -0.186
69 | RRIRVRPPRLPRPRPRPVMCPRP | -0.0631
70 | RRIRVRPPRLPRPRPRPVMPPRP | -0.0577
71 | RRIRVRPPRLPRPRPRPVNFPRP | 0.02
72 | RRIRVRPPRLPRPRPRPVNMPRP | -0.418
73 | RRIRVRPPRLPRPRPRPVPLPRP | -0.121
74 | RRIRVRPPRLPRPRPRPVQIPRP | -0.0141
75 | RRIRVRPPRLPRPRPRPVRQPRP | -0.0557

Row | Sequence | shrunken log2 fold change
76 | RRIRVRPPRLPRPRPRPVYKPRP | -0.302
77 | RRIRVRPPRLPRPRPRPVYMPRP | -0.184
78 | RRIRVRPPRLPRPRPRPVYNPRP | -0.738
79 | RRIRVRPPRLPRPRPRPVYWPRP | 0.0159
80 | RRIRVRPPRLPRPRPRPVYYPRP | -0.696
81 | RRIRVRPPRLPRPRPRPWARPRP | 0.416
82 | RRIRVRPPRLPRPRPRPWCIPRP | -0.165
83 | RRIRVRPPRLPRPRPRPWCLPRP | -0.198
84 | RRIRVRPPRLPRPRPRPWGMPRP | 0.0336
85 | RRIRVRPPRLPRPRPRPWGYPRP | -0.0139
86 | RRIRVRPPRLPRPRPRPWKGPRP | 0.103
87 | RRIRVRPPRLPRPRPRPWLIPRP | -0.277
88 | RRIRVRPPRLPRPRPRPWLQPRP | -0.0274
89 | RRIRVRPPRLPRPRPRPWNKPRP | -0.635
90 | RRIRVRPPRLPRPRPRPWNMPRP | -0.192
91 | RRIRVRPPRLPRPRPRPWSQPRP | -0.219
92 | RRIRVRPPRLPRPRPRPWTCPRP | -0.0943
93 | RRIRVRPPRLPRPRPRPWTGPRP | -0.0167
94 | RRIRVRPPRLPRPRPRPWWAPRP | -0.0894
95 | RRIRVRPPRLPRPRPRPWWPPRP | 0.162
96 | RRIRVRPPRLPRPRPRPWYLPRP | -0.425
97 | RRIRVRPPRLPRPRPRPYATPRP | -0.124
98 | RRIRVRPPRLPRPRPRPYCTPRP | -0.284
99 | RRIRVRPPRLPRPRPRPYDQPRP | -0.192
100 | RRIRVRPPRLPRPRPRPYELPRP | -0.401

Row | Sequence | shrunken log2 fold change
101 | RRIRVRPPRLPRPRPRPYFNPRP | -0.729
102 | RRIRVRPPRLPRPRPRPYFTPRP | -0.689
103 | RRIRVRPPRLPRPRPRPYFWPRP | -0.395
104 | RRIRVRPPRLPRPRPRPYGPPRP | -0.041
105 | RRIRVRPPRLPRPRPRPYHGPRP | -0.237
106 | RRIRVRPPRLPRPRPRPYIIPRP | -0.519
107 | RRIRVRPPRLPRPRPRPYKCPRP | -0.0495
108 | RRIRVRPPRLPRPRPRPYLFPRP | 0.0655
109 | RRIRVRPPRLPRPRPRPYLTPRP | -0.575
110 | RRIRVRPPRLPRPRPRPYLWPRP | -0.269
111 | RRIRVRPPRLPRPRPRPYLYPRP | -1.05
112 | RRIRVRPPRLPRPRPRPYMCPRP | -0.274
113 | RRIRVRPPRLPRPRPRPYMGPRP | -0.895
114 | RRIRVRPPRLPRPRPRPYMHPRP | -0.3
115 | RRIRVRPPRLPRPRPRPYNHPRP | -0.343
116 | RRIRVRPPRLPRPRPRPYPKPRP | -0.858
117 | RRIRVRPPRLPRPRPRPYQLPRP | -0.228
118 | RRIRVRPPRLPRPRPRPYRKPRP | -0.259
119 | RRIRVRPPRLPRPRPRPYTRPRP | -0.0163
120 | RRIRVRPPRLPRPRPRPYTYPRP | 0.128
121 | RRIRVRPPRLPRPRPRPYVCPRP | -0.525
122 | RRIRVRPPRLPRPRPRPYVPPRP | -0.398
123 | RRIRVRPPRLPRPRPRPYVWPRP | -0.567
124 | RRIRVRPPRLPRPRPRPYWHPRP | -0.636
125 | RRIRVRPPRLPRPRPRPYWLPRP | -0.411

Row | Sequence | shrunken log2 fold change
126 | RRIRVRPPRLPRPRPRPYYQPRP | -0.245
127 | RRIRVRPPRLPRPRPRPYYSPRP | -0.235
128 | RRIRVRPPRLPRPRPRPYYVPRP | -1.97
129 | RRIRWRPPRLPRPRPRPACCPRP | 0.454
130 | RRIRWRPPRLPRPRPRPADGPRP | 0.0472
131 | RRIRWRPPRLPRPRPRPADIPRP | 0.0169
132 | RRIRWRPPRLPRPRPRPADPPRP | 0.372
133 | RRIRWRPPRLPRPRPRPADYPRP | -0.123
134 | RRIRWRPPRLPRPRPRPAFAPRP | 1.23
135 | RRIRWRPPRLPRPRPRPAFYPRP | 0.371
136 | RRIRWRPPRLPRPRPRPAGEPRP | 0.432
137 | RRIRWRPPRLPRPRPRPAHTPRP | -0.172
138 | RRIRWRPPRLPRPRPRPAKPPRP | 0.0169
139 | RRIRWRPPRLPRPRPRPALDPRP | 0.553
140 | RRIRWRPPRLPRPRPRPALTPRP | 0.393
141 | RRIRWRPPRLPRPRPRPALWPRP | 0.53
142 | RRIRWRPPRLPRPRPRPAMTPRP | 0.299
143 | RRIRWRPPRLPRPRPRPANDPRP | -0.0438
144 | RRIRWRPPRLPRPRPRPANHPRP | -0.262
145 | RRIRWRPPRLPRPRPRPANIPRP | -0.884
146 | RRIRWRPPRLPRPRPRPANTPRP | -0.0364
147 | RRIRWRPPRLPRPRPRPAPLPRP | 0.512
148 | RRIRWRPPRLPRPRPRPAQDPRP | 0.415
149 | RRIRWRPPRLPRPRPRPAQVPRP | 0.565
150 | RRIRWRPPRLPRPRPRPARDPRP | 0.377
